{"source": "patent US20240317854A1", "about": "(Merck Sharp & Dohme, published 2024)", "binders": {"B1": {"name": "Humanized anti-ILT3 mAb (52B8 VH1 M64V/VL5 N34Q) IgG4 S228P/Kappa (antibody, V domains shown)", "VH": "EVQLVESGGGLVQPGGSLRLSCAASGFTFSNYGMSWVRQAPGKGLEWVATISGGGDYTNYPDSVRGRFTISRDNAKNSLYLQMNSLRAEDTAVYYCGRRLWFRSLYYAMDYWGQGTLVTVSS", "VL": "DIQLTQSPSSLSASVGDRVTITCRASEKVDSFGQSFMHWYQQKPGKAPKLLIYLTSNLDSGVPSRFSGSGSGTDFTLTISSLQPEDFATYYCQQNNEDPYTFGQGTKLEIKR", "notes": "also called mAb number 46; mAb No. 46"}}, "molecular_target": "T1, human immunoglobulin-like transcript 3 (ILT3) (human, UniProt Q8NHJ6 22-448)", "T1 construct": "whole, on cells; also called LILRB4; LIR5", "assay": "receptor occupancy in blood samples of trial participants dosed in vivo (Q3W)"}
{"binder": "B1", "values": [{"measurement": "binding result", "result": "binds"}]}
